# In article doi:10.1101/2023.12.15.570541:
# Target: MFSD1-strep (mouse Major Facilitator Superfamily Domain Containing 1 with N-terminal Twin-Streptavidin-tag) (mouse) (UniProt Q9DC37)
# Experiment: nanoDSF
# Chain of UniProt Q9DC37 (Q9DC37 whole entry, the tested form may be a part): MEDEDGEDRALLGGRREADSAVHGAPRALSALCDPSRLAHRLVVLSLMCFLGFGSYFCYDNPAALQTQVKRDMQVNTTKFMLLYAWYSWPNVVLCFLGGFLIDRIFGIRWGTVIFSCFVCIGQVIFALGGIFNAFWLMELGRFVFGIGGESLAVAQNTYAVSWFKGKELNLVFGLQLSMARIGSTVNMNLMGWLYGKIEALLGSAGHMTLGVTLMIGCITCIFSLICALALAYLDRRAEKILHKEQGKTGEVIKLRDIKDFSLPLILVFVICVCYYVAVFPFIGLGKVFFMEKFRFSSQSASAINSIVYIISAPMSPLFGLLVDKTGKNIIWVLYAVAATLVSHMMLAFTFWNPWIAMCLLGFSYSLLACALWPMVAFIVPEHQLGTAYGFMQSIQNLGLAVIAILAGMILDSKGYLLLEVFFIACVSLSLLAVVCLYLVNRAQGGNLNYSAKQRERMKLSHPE
Substance,Kd [mM],ΔTm [°C]
His-Ala (peptide),6.7,
His-Lys (peptide),0.765,12
Leu-Ala (peptide),2.2,
Leu-Leu (peptide),,14
Lys-Val (peptide),4.3,
Pro-Arg (peptide),0.318,12.1
